# Measured values published in publication PMC11980582, “The human microbiome-derived antimicrobial lugdunin self-regulates its biosynthesis by a feed-forward mechanism”.
# Legend:
# [1] = test system: T1, LugJ (Staphylococcus lugdunensis IVK28), ORF:22db99f4; assay: EMSA; details: 10 mM Tris/HCl pH 7.4, 10 mM NaCl (LugJ) or 100 mM NaCl (LugR), 0.1 mg/mL BSA, 1 mM DTT, 1 mM EDTA, 10% glycerol, 30 min at 25 C, 20 ul; 5% native PAGE
# T1 sequence: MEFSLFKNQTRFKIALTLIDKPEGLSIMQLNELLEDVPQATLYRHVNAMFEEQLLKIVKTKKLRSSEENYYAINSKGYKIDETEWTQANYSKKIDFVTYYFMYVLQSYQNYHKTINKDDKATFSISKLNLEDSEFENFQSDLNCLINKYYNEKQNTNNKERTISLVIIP
# [2] = test system: T1, LugJ (Staphylococcus lugdunensis IVK28), ORF:22db99f4; assay: competition; details: 10 mM Tris/HCl pH 7.4, 10 mM NaCl (LugJ) or 100 mM NaCl (LugR), 0.1 mg/mL BSA, 1 mM DTT, 1 mM EDTA, 10% glycerol, 30 min at 25 C, 20 ul; 5% native PAGE
# [3] = target: T2, LugR (Staphylococcus lugdunensis IVK28, UniProt A0A292DID1 1-196); assay: competition; 2 uM LugR; 50 or 100 ng competitor vs PlugR; 10 mM Tris/HCl pH 7.4, 10 mM NaCl (LugJ) or 100 mM NaCl (LugR), 0.1 mg/mL BSA, 1 mM DTT, 1 mM EDTA, 10% glycerol, 30 min at 25 C, 20 ul; 5% native PAGE; details: protein: recombinant; tags: 8xHis (N-terminal, pET-28a derived); chain copies: 2; label: none; blunt
# T2 sequence: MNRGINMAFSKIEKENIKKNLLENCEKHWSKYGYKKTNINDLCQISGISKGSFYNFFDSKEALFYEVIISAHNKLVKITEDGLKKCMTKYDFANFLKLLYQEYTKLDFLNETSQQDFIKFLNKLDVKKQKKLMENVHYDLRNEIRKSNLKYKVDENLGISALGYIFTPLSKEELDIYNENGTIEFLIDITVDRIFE
molecule,measurement,setting,value
ACATAACACCTCACTTTATACATAATAATTGATTTTTAAATAAATGTACAGTAACATTATCATTATCAATAATGATAATGGAGGGTGAAAATG (double strand) [PlugI promoter fragment],binding,[1],binds
ACATAACACCTCACTTTATACATAATAATTGATTTTTAAATAAATGTACAGTAACATTATCATTATCAATAATGATAATGGAGGGTGAAAATG (double strand) [cold PlugI],binding,[2],binds
PallugR native (dsDNA) DNA 1: GATAAAAGTGACTAGAAAAATTTATTTGGTCATAAATGAATAG DNA 2: CTATTCATTTATGACCAAATAAATTTTTCTAGTCACTTTTATC,binding result,[3],binds
